Data published in patent US20110150903A1 (Sanofi, published 2011).
Several values for one entry are separate records, joined by “and”; a condition that tells them apart may be missing. Equal values may be shown once.

T1: hFGFR3-Fc (human, UniProt P22607 23-375)
T1 construct: extracellular domain; Bought from R&D Systems; not shown: Fc domain of human IgG1
T1 sequence (looked up): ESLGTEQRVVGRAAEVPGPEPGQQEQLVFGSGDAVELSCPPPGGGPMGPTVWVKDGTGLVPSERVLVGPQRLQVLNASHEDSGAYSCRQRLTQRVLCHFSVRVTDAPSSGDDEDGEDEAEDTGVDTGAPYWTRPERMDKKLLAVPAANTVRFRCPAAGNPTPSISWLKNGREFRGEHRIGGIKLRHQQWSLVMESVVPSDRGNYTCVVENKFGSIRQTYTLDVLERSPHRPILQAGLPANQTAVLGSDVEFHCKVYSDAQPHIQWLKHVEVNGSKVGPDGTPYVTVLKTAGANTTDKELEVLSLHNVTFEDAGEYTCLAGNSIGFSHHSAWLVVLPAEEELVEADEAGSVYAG


Columns and labels:
hFGFR4-Histag [1] = molecular target: T2, hFGFR4-Histag (human, UniProt P22455 22-365); assay: SPR (BIAcore 3000)
T2 construct: also called SABVA4614

mFGFR4-Histag [2] = molecular target: T3, mFGFR4-Histag (murine, UniProt Q03142 19-362); assay: SPR (BIAcore 3000)
T3 construct: also called murine protein mFGFR4; murine FGF-R4

hFGFR4-Histag [3] = molecular target: T2, hFGFR4-Histag; assay: ELISA, HEK293 supernatant IgG on coated antigen
Text: (§1) The capture antigen was bound to Immulon-4 enzyme-linked plates (VWR Scientific Inc. Swedesboro, N.J.).

hFGFR4(D2,D3)-Histag [4] = molecular target: T4, hFGFR4(D2,D3)-Histag (human, UniProt P22455 22-365); assay: ELISA, HEK293 supernatant IgG on coated antigen
T4 construct: also called extracellular domain of FGF-R4 deleted of its D1 domain
Text: as §1

hFGFR4(D2,D3)-Histag [5] = molecular target: T4, hFGFR4(D2,D3)-Histag; assay: phage Fab ELISA on coated antigen, anti-M13 detection
Text: (§2) The specificity of each antibody is established by ELISA according to the following protocol: suspensions of phages displaying, at their surface, the antibodies in the Fab format are generated by infection of E. coli bacteria. The capture antigens were bound to Immulon-2 enzyme-linked dishes (VWR Scientific Inc. Swedesboro, N.J.).

hFGFR1-Fc [6] = molecular target: T5, hFGFR1-Fc (human); assay: as above
T5 construct: Extracellular domain of human FGF-R1 IIIc fused C-terminally to the Fc domain of human IgG1
Text: as §2

hFGFR2-Fc [7] = molecular target: T6, hFGFR2-Fc (human); assay: as above
T6 construct: Extracellular domain of human FGF-R2 IIIc fused C-terminally to the Fc domain of human IgG1
Text: as §2

hFGFR3-Fc [8] = molecular target: T1, hFGFR3-Fc; assay: as above
Text: as §2
hFGFR4_D1:Fc (SABVA4794) = molecular target: T7, hFGFR4_D1:Fc (SABVA4794) (human); assay: ELISA on coated subdomain-Fc construct
T7 construct: FGF-R4_HUMAN positions 1 to 179 fused to the Fc domain of human IgG1; also called fGFGR4_D1::Fc
Text: as §1

hFGFR4_D2:Fc (SABVA4796) = molecular target: T8, hFGFR4_D2:Fc (SABVA4796) (human); assay: ELISA on coated subdomain-Fc construct
T8 construct: FGF-R4_HUMAN positions 1 to 32 plus 145 to 242 fused to the Fc domain of human IgG1; also called fGFGR4_D2::Fc
Text: as §1

hFGFR4_D3:Fc (SABVA4799) = molecular target: T9, hFGFR4_D3:Fc (SABVA4799) (human); assay: ELISA on coated subdomain-Fc construct
T9 construct: also called fGFGR4_D3::Fc
Text: as §1

[9] = molecular target: T10, human FGF-R4 recombinant extracellular domain protein, construct not named (human, UniProt P22455 22-369); assay: SPR (BIAcore), antibody captured by anti-Fc antibody on the chip
T10 construct: extracellular domain; also called the FGF-R4 protein; complete extracellular domain of human FGF-R4

[10] = molecular target: T11, human FGF-R4 expressed on cells (human, UniProt P22455 22-802); assay: displacement of FGF2-AF488 (10 ng/ml) from human FGF-R4 on 300-19 cells
T11 construct: whole, on cells; Functional assays: endogenous receptor of human Hep3b and HUVEC cells; also called human FGF-R4s expressed at the surface of transfected 300-19 cells; FGF-R4 of Hep3b and HUVEC cells

[11] = molecular target: T12, rat FGF-R4 expressed on transfected 300-19 cells (rat, UniProt Q498D6 17-800); assay: displacement of labelled rat FGF2 from rat FGF-R4 on 300-19 cells; rat FGF-R4, rat FGF2; in ng/ml
T12 construct: also called rFGFR4
Experimental: (§3) Firstly, competition binding experiments were carried out.
(§4) The dissociation experiments were carried out using the 300-19 lines transfected with mouse or rat FGF-R4 receptors.

hFGFR1-Fc [12] = molecular target: T5, hFGFR1-Fc; assay: ELISA on plates coated with the 4 human FGF receptors, antibody concentration not given
hFGFR2-Fc [13] = molecular target: T6, hFGFR2-Fc; assay: as above
hFGFR3-Fc [14] = molecular target: T1, hFGFR3-Fc; assay: as above
[15] = molecular target: T13, mouse FGF-R4 expressed on transfected 300-19 cells (mouse, UniProt Q03142 17-799); assay: displacement of labelled murine FGF2 from mouse FGF-R4 on 300-19 cells; mouse FGF-R4, murine FGF2; in ng/ml
T13 construct: whole, on cells; also called murine FGF-R4
Experimental: as §3, §4

mFGFR4-Histag [16] = molecular target: T3, mFGFR4-Histag; assay: ELISA on coated FGF-R4 constructs, single condition, antibody concentration not given
hFGFR3-Fc [17] = molecular target: T1, hFGFR3-Fc; assay: ELISA on plates coated with the 4 human FGF receptors, single condition, antibody concentration not given

| Binder | Kd (hFGFR4-Histag [1]) [nM] | koff (hFGFR4-Histag [1]) [s⁻¹] | kon (hFGFR4-Histag [1]) [M⁻¹ s⁻¹] | Kd (mFGFR4-Histag [2]) [nM] | koff (mFGFR4-Histag [2]) [s⁻¹] | kon (mFGFR4-Histag [2]) [M⁻¹ s⁻¹] | OD signal at 450 nm (hFGFR4-Histag [3]) [OD 450 nm] | OD signal at 450 nm (hFGFR4(D2,D3)-Histag [4]) [OD 450 nm] | ELISA signal (OD, 450 nm) (hFGFR4(D2,D3)-Histag [5]) [OD 450 nm] | ELISA signal (OD, 450 nm) (hFGFR1-Fc [6]) [OD 450 nm] | ELISA signal (OD, 450 nm) (hFGFR2-Fc [7]) [OD 450 nm] | ELISA signal (OD, 450 nm) (hFGFR3-Fc [8]) [OD 450 nm] | also measured |
| --- | --- | --- | --- | --- | --- | --- | --- | --- | --- | --- | --- | --- | --- |
| anti-FGFR4 antibody clone 31 (human IgG1 format) (antibody, V domains shown, As for clone 8: human IgG1 format from HEK293; also called antibody 31) VH: EVQLLESGGGLVQPGGSLRLSCAASGFTFSRYFMKWVRQAPGKGLEWVSWISPSGGLTEYADSVKGRFTISRDNSKNTLYLQMNSLRAEDTAVYYCARASYGAWLDYWGQGTLVTVSS VL: DIQMTQSPSSLSLSPGERATLSCRASQSINRNLGWYQQKPGQAPRLLIYGASTRATGIPARFTGSGSGTEFSLTISSLQSEDYAIYYCQQYDNWPIIFGQGTRLEIKG | 1.52 | 0.00098 | 648000 | 1.97 | 0.0018 | 914000 | 3.86 | 3.74 |  |  |  |  |  |
| clone 31 in the Fab format displayed on phage (Fab, V domains shown) VH: EVQLLESGGGLVQPGGSLRLSCAASGFTFSRYFMKWVRQAPGKGLEWVSWISPSGGLTEYADSVKGRFTISRDNSKNTLYLQMNSLRAEDTAVYYCARASYGAWLDYWGQGTLVTVSS VL: DIQMTQSPSSLSLSPGERATLSCRASQSINRNLGWYQQKPGQAPRLLIYGASTRATGIPARFTGSGSGTEFSLTISSLQSEDYAIYYCQQYDNWPIIFGQGTRLEIKG |  |  |  |  |  |  |  |  | 2.52 | 0 | 0 | 0.01 |  |
| anti-FGFR4 antagonist monoclonal antibody 40-12 (antibody, mouse IgG1, kappa, V domains shown, Purified on protein G; also called clone 40-12; anti-FGFR4 40-12) VH: not shown VL: DIVLTQSPATLSVTPGDRVSLSCRASQSISNYLHWYQQKSHESPRLLIKYASQSISGIPSRFSGSGSGTDFILSFNSVETEDFGMYFCQQSNSWPFTFGSGTKLEIKR |  |  |  |  |  |  |  |  |  |  |  |  | Signal (O.D., 450 nm) (hFGFR4_D1:Fc (SABVA4794)): 0.185 O.D. 450 nm; Signal (O.D., 450 nm) (hFGFR4_D2:Fc (SABVA4796)): 3 O.D. 450 nm; Signal (O.D., 450 nm) (hFGFR4_D3:Fc (SABVA4799)): 0.105 O.D. 450 nm; Kd [9]: 6.5 nM; koff [9]: 0.00126 s⁻¹; kon [9]: 194000 M⁻¹ s⁻¹; IC50 [10]: 3.5 µg/mL and 23 nM; IC50 [11]: 3.94 µg/mL; binding result (hFGFR1-Fc [12]): no binding; binding result (hFGFR2-Fc [13]): no binding; binding result (hFGFR3-Fc [14]): no binding; IC50 [15]: 4.11 µg/mL |
| anti-FGFR4 antibody clone 8 (human IgG1 format) (antibody, V domains shown, also called antibody 8) VH: EVQLLESGGGLVQPGGSLRLSCAASGFTFSPYWMGWVRQAPGKGLEWVSVIWPSGGTTDYADSVKGRFTISRDNSKNTLYLQMNSLRAEDTAVYYCARVHPAGHNDHWGQGTLVTVSS VL: QSELTQPPSASGTPGQRVTISCSGGYSNMGSNYAHWYQQLPGTAPKLLIYNNNQRPSGVPDRFSGSKSGTSASLAISGLRSEDEADYYCAAWDDSLSGPVFGGGTKLTVLG | 0.327 | 0.000292 | 893000 | 0.115 | 0.000136 | 1.2e+06 | 3.9 | 3.86 |  |  |  |  |  |
| clone 8 in the Fab format displayed on phage (Fab, V domains shown) VH: EVQLLESGGGLVQPGGSLRLSCAASGFTFSPYWMGWVRQAPGKGLEWVSVIWPSGGTTDYADSVKGRFTISRDNSKNTLYLQMNSLRAEDTAVYYCARVHPAGHNDHWGQGTLVTVSS VL: QSELTQPPSASGTPGQRVTISCSGGYSNMGSNYAHWYQQLPGTAPKLLIYNNNQRPSGVPDRFSGSKSGTSASLAISGLRSEDEADYYCAAWDDSLSGPVFGGGTKLTVLG |  |  |  |  |  |  |  |  | 2.55 | 0.05 | 0 | 0 |  |
| anti-FGFR4 antibody 64-12 (antibody, mouse IgG1, V domains shown, also called clone 64-12; control antibody 64-12) VH: DVQLVESGGGLVQPGGSRKLSCAASGFTFSNFGMHWVRQAPEKGLEWVAYISSGSSTIYYADTVKGRFTISRDNPKNTLFLQMTSLRSEDTAMYYCARYDYDDDYYAMEYWGQGTSVTVSS VL: QAVVTQESALTTSPGETVTLTCRSSTGAVTTSNYANWVQEKPDHLFTGLIGGTNNRAPGVPARFSGSLIGDKAALTITGAQTEDEAIYFCALWYSNHWVFGGGTKLTVLG |  |  |  |  |  |  |  |  |  |  |  |  | Kd [9]: 57.5 nM; koff [9]: 0.000602 s⁻¹; kon [9]: 10500 M⁻¹ s⁻¹; binding result (mFGFR4-Histag [16]): binds; binding result (hFGFR3-Fc [17]): binds |
| anti-FGFR4 antibody clone 33 (human IgG1 format) (antibody, V domains shown, As for clone 8: human IgG1 format from HEK293; also called antibody 33) VH: EVQLLESGGGLVQPGGSLRLSCAASGFTFSTYWMAWVRQAPGKGLEWVSVIGPSGGMTVYADSVKGRFTISRDNSKNTLYLQMNSLRAEDTAVYYCARINSGSSHFDYWGQGTLVTVSS VL: QSVLTQPPSASGTPGQGVTISCSGSSSNIGSNSVNWYQQLPGAAPKLLIYSNNLRPSGVPARFSGSKSGTSASLAISGLRSEDEADYYCAAWDDGLDAYVVFGGGTKLTVLG | 0.771 | 0.000617 | 805000 | 0.692 | 0.000704 | 1.01e+06 | 3.75 | 3.62 |  |  |  |  |  |
| clone 33 in the Fab format displayed on phage (Fab, V domains shown) VH: EVQLLESGGGLVQPGGSLRLSCAASGFTFSTYWMAWVRQAPGKGLEWVSVIGPSGGMTVYADSVKGRFTISRDNSKNTLYLQMNSLRAEDTAVYYCARINSGSSHFDYWGQGTLVTVSS VL: QSVLTQPPSASGTPGQGVTISCSGSSSNIGSNSVNWYQQLPGAAPKLLIYSNNLRPSGVPARFSGSKSGTSASLAISGLRSEDEADYYCAAWDDGLDAYVVFGGGTKLTVLG |  |  |  |  |  |  |  |  | 2.73 | 0 | 0 | -0.01 |  |
| anti-FGFR4 antibody clone 36 (human IgG1 format) (antibody, V domains shown, As for clone 8: human IgG1 format from HEK293; also called antibody 36) VH: EVQLLESGGGLVQPGGSLRLSCAASGFTFSHYWMGWVRQAPGKGLEWVSVISPSGGLTIYADSVKGRFTISRDNSKNTLYLQMNSLRAEDTAVYYCARSSGWALDAFDIWGQGTMVTVSS VL: QYELTQPPSASGTPGQRVTISCSGSSSNIGSNIVHWYQQLPGTAPKLLIYGNNQRPSGVPDRFSVSKSGSSASLAISGLQSEDEADYYCASWDDSLKAFYVFGTGTKVTVLG | 2.62 | 0.000631 | 244000 | 2.28 | 0.000752 | 330000 | 3.75 | 3.62 |  |  |  |  |  |
| clone 36 in the Fab format displayed on phage (Fab, V domains shown) VH: EVQLLESGGGLVQPGGSLRLSCAASGFTFSHYWMGWVRQAPGKGLEWVSVISPSGGLTIYADSVKGRFTISRDNSKNTLYLQMNSLRAEDTAVYYCARSSGWALDAFDIWGQGTMVTVSS VL: QYELTQPPSASGTPGQRVTISCSGSSSNIGSNIVHWYQQLPGTAPKLLIYGNNQRPSGVPDRFSVSKSGSSASLAISGLQSEDEADYYCASWDDSLKAFYVFGTGTKVTVLG |  |  |  |  |  |  |  |  | 1.87 | -0.01 | -0.01 | -0.02 |  |
